Values of other authors as cited in PMC7602980 (Biomolecules, 2020).

Target: Cx43CT
Conditions: compared with CaM; no reference printed beside the value; Drebrin–Cx43 interaction ref [78]; read-out: binding affinity Drebrin for Cx43CT, as quoted in discussion
From the text: While CaM can be seen as mimicking P ...

Kd: ~300 µM
B1: Drebrin: developmentally regulated brain protein, linker between Cx43 gap junctions and actin/submembrane cytoskeleton (protein, UniProt Q16643 2-649, looked up)
Drebrin: AGVSFSGHRLELLAAYEEVIREESAADWALYTYEDGSDDLKLAASGEGGLQELSGHFENQKVMYGFCSVKDSQAALPKYVLINWVGEDVPDARKCACASHVAKVAEFFQGVDVIVNASSVEDIDAGAIGQRLSNGLARLSSPVLHRLRLREDENAEPVGTTYQKTDAAVEMKRINREQFWEQAKKEEELRKEEERKKALDERLRFEQERMEQERQEQEERERRYREREQQIEEHRRKQQTLEAEEAKRRLKEQSIFGDHRDEEEETHMKKSESEVEEAAAIIAQRPDNPREFFKQQERVASASAGSCDVPSPFNHRPGSHLDSHRRMAPTPIPTRSPSDSSTASTPVAEQIERALDEVTSSQPPPLPPPPPPAQETQEPSPILDSEETRAAAPQAWAGPMEEPPQAQAPPRGPGSPAEDLMFMESAEQAVLAAPVEPATADATEIHDAADTIETDTATADTTVANNVPPAATSLIDLWPGNGEGASTLQGEPRAPTPPSGTEVTLAEVPLLDEVAPEPLLPAGEGCATLLNFDELPEPPATFCDPEEVEGESLAAPQTPTLPSALEELEQEQEPEPHLLTNGETTQKEGTQASEGYFSQSQEEEFAQSEELCAKAPPPVFYNKPPEIDITCWDADPVPEEEEGFEGGD
